According to publication PMC6889490, “General structural features that regulate integrin affinity revealed by atypical αVβ8” (Nature Communications, 2019):
“Also recorded” adds a separate entry of the source. Ends that are not written are not given here. * marks the point of attachment. FITC = O=C1OC2(c3ccc(O)cc3Oc3cc(O)ccc32)c2ccc(NC(=S)*)cc21; Ahx = NCCCCCC(=O)O

How the values were obtained:
αVβ8-mut6 headpiece = molecular target: T1, αVβ8-mut6 headpiece (Homo sapiens, UniProt P06756+P26012, K165T/M430C/N161D/N162D/V301C); assay: Negative stain EM headpiece opening, αVβ8-mut6; details: 1 mM Mn2+/0.2 mM Ca2+
T1 construct: residues 1–594 of the αV-subunit and 1–456 of the β8-subunit; made in house; host or cells: Expi293 cells (transient)
From the text: Fig. 7 Regulation of ligand-binding affinity by atypical and typical residues in αVβ8 and αVβ6. a Mutations corresponding to sequence exchanges between αVβ8 (black) and αVβ6 (red) and effect on affinity for FITC-labeled TGF-β3 ligand peptide (GRGDLGRLKK) in presence of Mg^2+ and Mn^2+. […] As in statistical models for determining p values, the fit assumes that errors are independent and normally distributed. The reported fit minimizes the sum of the squared errors. […] Source data for a, b are provided as a Source Data file. c Representative negative stain class averages of mutant or WT integrin headpieces alone (upper panels) or complexed with pro-TGF-β1. Representative 2:1 pro-TGF-β1:integrin class averages are shown. The WT integrin class averages shown for comparison are previously published. d, e Residues in regions of βI domain allostery with unusual properties in αVβ8 (d) are compared to counterparts in αVβ6 (e). […] Mn^2+: 0.37 [0.18, 0.55] […]
αVβ8-mut3 or αVβ8-mut6 (15 μg) were mixed with pro-TGF-β1 at molar ratio 1.5:1 in 50 μl of HBS buffer containing 1 mM Mn^2+/0.2 mM Ca^2+ for 30 min and injected in a 24 ml Superdex 75 gel filtration column pre-equilibrated with HBS buffer (20 mM HEPEs, pH 7.5, 150 mM NaCl, 1 mM Mn^2+/0.2 mM Ca^2+). The 2:2, 2:1 complexes and unbound αVβ8 and pro-TGF-β1 were well separated. […]

αVβ8-WT headpiece = molecular target: T2, αVβ8-WT headpiece (Homo sapiens, UniProt P06756+P26012, M430C/V301C); details: Mn2+; negative stain EM; cited from earlier work
T2 construct: residues 1–594 of the αV-subunit and 1–456 of the β8-subunit; made in house; host or cells: HEK293S GntI−/− cells

D8/D9 αVβ8 = D8/D9 αVβ8 compared to WT; cited from earlier work
From the text: Mn^2+ increases affinity of αVβ6 in part by stabilizing headpiece opening. […] Results with αVβ8 were more complex. Substitution of one or both A ...

αVβ6-WT = assay: Fluorescence polarization saturation binding, αVβ6-WT; details: 2, 5 and 10 nM probe, repeat1 and repeat2, 2 replicates each
From the text: As in statistical models for determining p values, the fit assumes that errors are independent and normally distributed. The reported fit minimizes the sum of the squared errors. […] Source data for a, b are provided as a Source Data file. c Representative negative stain class averages of mutant or WT integrin headpieces alone (upper panels) or complexed with pro-TGF-β1. Representative 2:1 pro-TGF-β1:integrin class averages are shown.

pro-TGF-β3 peptide [1] = molecular target: T3, pro-TGF-β3 peptide (Homo sapiens); assay: fluorescence polarization
T3 chain: {FITC-Ahx}-GRGDLGRLKK

pro-TGF-β3 peptide [2] = molecular target: T4, pro-TGF-β3 peptide (Homo sapiens); assay: fluorescence polarization
T4 chain: {FITC-Ahx}-GRGDLGRLKK

T1 sequence (P06756 31-624 M430C): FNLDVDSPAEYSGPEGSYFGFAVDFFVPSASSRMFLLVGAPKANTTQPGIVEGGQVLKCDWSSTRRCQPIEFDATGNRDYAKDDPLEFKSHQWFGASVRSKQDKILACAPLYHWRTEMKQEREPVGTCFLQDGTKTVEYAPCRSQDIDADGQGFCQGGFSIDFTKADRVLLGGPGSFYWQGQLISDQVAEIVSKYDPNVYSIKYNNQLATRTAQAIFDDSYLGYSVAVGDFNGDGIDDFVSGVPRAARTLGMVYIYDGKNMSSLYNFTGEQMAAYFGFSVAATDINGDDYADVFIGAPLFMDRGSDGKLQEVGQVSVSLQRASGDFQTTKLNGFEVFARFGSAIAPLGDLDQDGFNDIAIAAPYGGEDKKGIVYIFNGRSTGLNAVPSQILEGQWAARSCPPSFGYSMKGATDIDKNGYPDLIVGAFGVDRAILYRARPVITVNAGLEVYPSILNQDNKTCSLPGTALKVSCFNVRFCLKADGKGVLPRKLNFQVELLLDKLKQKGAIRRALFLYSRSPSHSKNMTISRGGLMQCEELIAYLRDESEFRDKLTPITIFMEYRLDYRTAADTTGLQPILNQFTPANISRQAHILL
T1 sequence (P26012 43-498 N161D/N162D/K165T/V301C): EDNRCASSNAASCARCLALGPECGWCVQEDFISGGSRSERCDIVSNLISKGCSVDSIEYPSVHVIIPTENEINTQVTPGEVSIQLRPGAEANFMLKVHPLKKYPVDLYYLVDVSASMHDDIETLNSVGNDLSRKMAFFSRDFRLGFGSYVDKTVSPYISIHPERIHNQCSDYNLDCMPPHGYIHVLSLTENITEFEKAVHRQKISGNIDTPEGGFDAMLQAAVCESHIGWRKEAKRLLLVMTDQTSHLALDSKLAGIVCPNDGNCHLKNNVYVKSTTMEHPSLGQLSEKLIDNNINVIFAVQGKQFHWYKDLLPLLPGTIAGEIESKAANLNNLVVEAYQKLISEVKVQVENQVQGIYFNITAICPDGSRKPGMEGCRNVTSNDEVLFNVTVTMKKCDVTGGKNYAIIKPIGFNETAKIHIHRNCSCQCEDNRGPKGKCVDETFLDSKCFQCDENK
T2 sequence (P06756 31-624 M430C): as the sequence (P06756 31-624 M430C) above
T2 sequence (P26012 43-498 V301C): as the sequence (P26012 43-498 N161D/N162D/K165T/V301C) above, with D119N, D120N, T123K counted along it

## pro-TGF-β1: Human pro-TGFβ-1 with a R249A cleavage site mutation
αVβ8-mut6 headpiece
  headpiece conformation when bound to pro-TGF-β1: remained closed; also recorded: neither mutant showed the open headpiece
αVβ8-WT headpiece
  headpiece conformation when bound to pro-TGF-β1: remained closed

## vitronectin: vitronectin, integrin ligand measured in cell binding in a cited study
D8/D9 αVβ8
  amount of vitronectin binding to cells: decreased binding of D8/D9 αVβ8 compared to WT

## avb6-WT
αVβ6-WT; Mg fitting results, Std.Error 1.672e-10, 99% confidence interval 2.49E-09 (lower), 3.37E-09 (upper)
  Kd: 2.93 nM
αVβ6-WT; Mn fitting results, Std.Error 5.139e-11, 99% confidence interval 1.21E-10 (lower), 3.88E-10 (upper)
  Kd: 0.254 nM

B1: Integrin αVβ8 headpiece αV 1-594 + β8 1-456 (protein)
chain 1: FNLDVDSPAEYSGPEGSYFGFAVDFFVPSASSRMFLLVGAPKANTTQPGIVEGGQVLKCDWSSTRRCQPIEFDATGNRDYAKDDPLEFKSHQWFGASVRSKQDKILACAPLYHWRTEMKQEREPVGTCFLQDGTKTVEYAPCRSQDIDADGQGFCQGGFSIDFTKADRVLLGGPGSFYWQGQLISDQVAEIVSKYDPNVYSIKYNNQLATRTAQAIFDDSYLGYSVAVGDFNGDGIDDFVSGVPRAARTLGMVYIYDGKNMSSLYNFTGEQMAAYFGFSVAATDINGDDYADVFIGAPLFMDRGSDGKLQEVGQVSVSLQRASGDFQTTKLNGFEVFARFGSAIAPLGDLDQDGFNDIAIAAPYGGEDKKGIVYIFNGRSTGLNAVPSQILEGQWAARSMPPSFGYSMKGATDIDKNGYPDLIVGAFGVDRAILYRARPVITVNAGLEVYPSILNQDNKTCSLPGTALKVSCFNVRFCLKADGKGVLPRKLNFQVELLLDKLKQKGAIRRALFLYSRSPSHSKNMTISRGGLMQCEELIAYLRDESEFRDKLTPITIFMEYRLDYRTAADTTGLQPILNQFTPANISRQAHILLDCGEDNVCKPKLEVSVDSDQKKIYIGDDNPLTLIVKAQNQGEGAYEAELIVSIPLQADFIGVVRNNEALARLSCAFKTENQTRQVVCDLGNPMKAGTQLLAGLRFSVHQQSEMDTSVKFDLQIQSSNLFDKVSPVVSHKVDLAVLAAVEIRGVSSPDHVFLPIPNWEHKENPETEEDVGPVVQHIYELRNNGPSSFSKAMLHLQWPYKYNNNTLLYILHYDIDGPMNCTSDMEINPLRIKISSLQTTEKNDTVAGQGERDHLITKRDLALSEGDIHTLGCGVAQCLKIVCQVGRLDRGKSAILYVKSLLWTETFMNKENQNHSYSLKSSASFNVIEFPYKNLPIEDITNSTLVTTNVTWGIQPAPMPV
chain 2: EDNRCASSNAASCARCLALGPECGWCVQEDFISGGSRSERCDIVSNLISKGCSVDSIEYPSVHVIIPTENEINTQVTPGEVSIQLRPGAEANFMLKVHPLKKYPVDLYYLVDVSASMHNNIEKLNSVGNDLSRKMAFFSRDFRLGFGSYVDKTVSPYISIHPERIHNQCSDYNLDCMPPHGYIHVLSLTENITEFEKAVHRQKISGNIDTPEGGFDAMLQAAVCESHIGWRKEAKRLLLVMTDQTSHLALDSKLAGIVVPNDGNCHLKNNVYVKSTTMEHPSLGQLSEKLIDNNINVIFAVQGKQFHWYKDLLPLLPGTIAGEIESKAANLNNLVVEAYQKLISEVKVQVENQVQGIYFNITAICPDGSRKPGMEGCRNVTSNDEVLFNVTVTMKKCDVTGGKNYAIIKPIGFNETAKIHIHRNCSCQCEDNRGPKGKCVDETFLDSKCFQCDENKCHFDEDQFSSESCKSHKDQPVCSGRGVCVCGKCSCHKIKLGKVYGKYCEKDDFSCPYHHGNLCAGHGECEAGRCQCFSGWEGDRCQCPSAAAQHCVNSKGQVCSGRGTCVCGRCECTDPRSIGRFCEHCPTCYTACKENWNCMQCLHPHNLSQAILDQCKTSCALMEQQHYVDQTSECFSSPSYLR
pro-TGF-β3 peptide [1]
  Kd: 30 nM

B2: Integrin αVβ6 headpiece headpiece (protein)
chain 1: FNLDVDSPAEYSGPEGSYFGFAVDFFVPSASSRMFLLVGAPKANTTQPGIVEGGQVLKCDWSSTRRCQPIEFDATGNRDYAKDDPLEFKSHQWFGASVRSKQDKILACAPLYHWRTEMKQEREPVGTCFLQDGTKTVEYAPCRSQDIDADGQGFCQGGFSIDFTKADRVLLGGPGSFYWQGQLISDQVAEIVSKYDPNVYSIKYNNQLATRTAQAIFDDSYLGYSVAVGDFNGDGIDDFVSGVPRAARTLGMVYIYDGKNMSSLYNFTGEQMAAYFGFSVAATDINGDDYADVFIGAPLFMDRGSDGKLQEVGQVSVSLQRASGDFQTTKLNGFEVFARFGSAIAPLGDLDQDGFNDIAIAAPYGGEDKKGIVYIFNGRSTGLNAVPSQILEGQWAARSMPPSFGYSMKGATDIDKNGYPDLIVGAFGVDRAILYRARPVITVNAGLEVYPSILNQDNKTCSLPGTALKVSCFNVRFCLKADGKGVLPRKLNFQVELLLDKLKQKGAIRRALFLYSRSPSHSKNMTISRGGLMQCEELIAYLRDESEFRDKLTPITIFMEYRLDYRTAADTTGLQPILNQFTPANISRQAHILLDCGEDNVCKPKLEVSVDSDQKKIYIGDDNPLTLIVKAQNQGEGAYEAELIVSIPLQADFIGVVRNNEALARLSCAFKTENQTRQVVCDLGNPMKAGTQLLAGLRFSVHQQSEMDTSVKFDLQIQSSNLFDKVSPVVSHKVDLAVLAAVEIRGVSSPDHVFLPIPNWEHKENPETEEDVGPVVQHIYELRNNGPSSFSKAMLHLQWPYKYNNNTLLYILHYDIDGPMNCTSDMEINPLRIKISSLQTTEKNDTVAGQGERDHLITKRDLALSEGDIHTLGCGVAQCLKIVCQVGRLDRGKSAILYVKSLLWTETFMNKENQNHSYSLKSSASFNVIEFPYKNLPIEDITNSTLVTTNVTWGIQPAPMPV
chain 2: GCALGGAETCEDCLLIGPQCAWCAQENFTHPSGVGERCDTPANLLAKGCQLNFIENPVSQVEILKNKPLSVGRQKNSSDIVQIAPQSLILKLRPGGAQTLQVHVRQTEDYPVDLYYLMDLSASMDDDLNTIKELGSRLSKEMSKLTSNFRLGFGSFVEKPVSPFVKTTPEEIANPCSSIPYFCLPTFGFKHILPLTNDAERFNEIVKNQKISANIDTPEGGFDAIMQAAVCKEKIGWRNDSLHLLVFVSDADSHFGMDSKLAGIVIPNDGLCHLDSKNEYSMSTVLEYPTIGQLIDKLVQNNVLLIFAVTQEQVHLYENYAKLIPGATVGLLQKDSGNILQLIISAYEELRSEVELEVLGDTEGLNLSFTAICNNGTLFQHQKKCSHMKVGDTASFSVTVNIPHCERRSRHIIIKPVGLGDALELLVSPECNCDCQKEVEVNSSKCHHGNGSFQCGVCACHPGHMGPRCECGEDMLSTDSCKEAPDHPSCSGRGDCYCGQCICHLSPYGNIYGPYCQCDNFSCVRHKGLLCGGNGDCDCGECVCRSGWTGEYCNCTTSTDSCVSEDGVLCSGRGDCVCGKCVCTNPGASGPTCERCPTCGDPCNSKRSCIECHLSAAGQAREECVDKCKLAGATISEEEDFSKDGSVSCSLQGENECLITFLITTDNEGKTIIHSINEKDCPKPPNIP
pro-TGF-β3 peptide [2]
  Kd: 12 nM
